T1: cynomolgus monkey NaPi2b (cynomolgus monkey, UniProt O95436 1-690 (human entry))
T1 construct: also called Cyno NaPi2b; Cy NaPi2b
T1 chain: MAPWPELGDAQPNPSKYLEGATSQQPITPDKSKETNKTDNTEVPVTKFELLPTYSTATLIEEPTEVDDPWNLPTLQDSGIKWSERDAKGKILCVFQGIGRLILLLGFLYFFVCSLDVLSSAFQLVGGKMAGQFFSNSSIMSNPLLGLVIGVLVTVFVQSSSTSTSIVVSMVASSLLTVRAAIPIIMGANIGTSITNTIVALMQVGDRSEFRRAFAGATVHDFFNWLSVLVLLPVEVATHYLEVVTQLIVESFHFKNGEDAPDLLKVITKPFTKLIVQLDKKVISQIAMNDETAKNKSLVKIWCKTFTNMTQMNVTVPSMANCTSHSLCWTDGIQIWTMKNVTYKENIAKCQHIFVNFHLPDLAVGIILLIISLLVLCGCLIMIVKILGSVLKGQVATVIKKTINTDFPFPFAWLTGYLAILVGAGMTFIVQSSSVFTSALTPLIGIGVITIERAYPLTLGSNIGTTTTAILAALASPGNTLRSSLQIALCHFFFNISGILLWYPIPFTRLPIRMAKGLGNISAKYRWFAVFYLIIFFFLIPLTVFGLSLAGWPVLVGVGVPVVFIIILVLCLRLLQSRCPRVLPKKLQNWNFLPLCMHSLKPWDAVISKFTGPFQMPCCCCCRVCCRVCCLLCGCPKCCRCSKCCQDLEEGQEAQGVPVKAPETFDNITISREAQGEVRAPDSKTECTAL

T2: mouse NaPi2b (mouse, UniProt Q9DBP0 1-697)
T2 construct: also called Ms NaPi2b; CL #13476
T2 sequence: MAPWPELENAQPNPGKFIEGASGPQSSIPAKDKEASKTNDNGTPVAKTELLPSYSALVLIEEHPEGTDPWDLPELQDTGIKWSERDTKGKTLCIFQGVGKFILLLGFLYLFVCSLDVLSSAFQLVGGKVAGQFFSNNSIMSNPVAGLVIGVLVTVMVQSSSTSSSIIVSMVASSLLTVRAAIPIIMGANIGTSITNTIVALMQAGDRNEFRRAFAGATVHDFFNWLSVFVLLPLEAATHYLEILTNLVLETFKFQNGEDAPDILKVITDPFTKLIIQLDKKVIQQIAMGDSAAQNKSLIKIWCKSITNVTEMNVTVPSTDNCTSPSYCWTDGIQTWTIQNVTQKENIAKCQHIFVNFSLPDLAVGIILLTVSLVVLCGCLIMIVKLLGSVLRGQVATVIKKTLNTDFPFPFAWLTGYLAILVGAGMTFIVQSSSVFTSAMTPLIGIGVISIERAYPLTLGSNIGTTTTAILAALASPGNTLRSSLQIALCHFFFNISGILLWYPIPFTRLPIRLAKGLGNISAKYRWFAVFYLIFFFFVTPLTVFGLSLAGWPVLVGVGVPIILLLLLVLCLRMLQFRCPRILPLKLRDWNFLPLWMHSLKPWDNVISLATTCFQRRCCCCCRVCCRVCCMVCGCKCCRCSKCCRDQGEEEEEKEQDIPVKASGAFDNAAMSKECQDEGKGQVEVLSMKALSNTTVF


Assays:
cynomolgus monkey NaPi2b = biological target: T1, cynomolgus monkey NaPi2b; test: flow cytometry on HEK293-6e cells transiently transfected with cynomolgus NaPi2b, antibody 18-24 h at 4 C, anti-human IgG Fc AF647
mouse NaPi2b = biological target: T2, mouse NaPi2b; test: flow cytometry, HEK293-6e cells transfected with mouse NaPi2b; apparent Kd above the highest concentration tested

Row | Binder | binding result (cynomolgus monkey NaPi2b) | Kd (mouse NaPi2b)
1 | v22277 (palivizumab, anti-RSV negative control, heterodimeric Fc) (antibody, human IgG1, kappa, also called neg control) heavy 1: GQVTLRESGPALVKPTQTLTLTCTFSGFSLSTSGMSVGWIRQPPGKALEWLADIWWDDKKDYNPSLKSRLTISKDTSKNQVVLKVTNMDPADTATYYCARSMITNWYFDVWGAGTTVTVSSASTKGPSVFPLAPSSKSTSGGTAALGCLVKDYFPEPVTVSWNSGALTSGVHTFPAVLQSSGLYSLSSVVTVPSSSLGTQTYICNVNHKPSNTKVDKKVEPKSCDKTHTCPPCPAPELLGGPSVFLFPPKPKDTLMISRTPEVTCVVVDVSHEDPEVKFNWYVDGVEVHNAKTKPREEQYNSTYRVVSVLTVLHQDWLNGKEYKCKVSNKALPAPIEKTISKAKGQPREPQVYVYPPSRDELTKNQVSLTCLVKGFYPSDIAVEWESNGQPENNYKTTPPVLDSDGSFALVSKLTVDKSRWQQGNVFSCSVMHEALHNHYTQKSLSLSPG heavy 2: not shown light: GDIQMTQSPSTLSASVGDRVTITCKSQLSVGYMHWYQQKPGKAPKLLIYDTSKLASGVPSRFSGSGSGTEFTLTISSLQPDDFATYYCFQGSGYPFTFGGGTKLEIKRTVAAPSVFIFPPSDEQLKSGTASVVCLLNNFYPREAKVQWKVDNALQSGNSQESVTEQDSKDSTYSLSSTLTLSKADYEKHKVYACEVTHQGLSSPVTKSFNRGEC | no binding (tested: 200 nM) | 
2 | v18992 (MX35), reference anti-NaPi2b antibody (antibody, human IgG1, kappa) heavy 1: GQVQLVQSGAEVVKPGASVKMSCKASGYTFTGYNIHWVKQAPGQGLEWIGAIYPGNGDTSYKQKFRGRATLTADTSTSTVYMELSSLRSEDSAVYYCARGETARATFAYWGQGTLVTVSSASTKGPSVFPLAPSSKSTSGGTAALGCLVKDYFPEPVTVSWNSGALTSGVHTFPAVLQSSGLYSLSSVVTVPSSSLGTQTYICNVNHKPSNTKVDKKVEPKSCDKTHTCPPCPAPELLGGPSVFLFPPKPKDTLMISRTPEVTCVVVDVSHEDPEVKFNWYVDGVEVHNAKTKPREEQYNSTYRVVSVLTVLHQDWLNGKEYKCKVSNKALPAPIEKTISKAKGQPREPQVYVYPPSRDELTKNQVSLTCLVKGFYPSDIAVEWESNGQPENNYKTTPPVLDSDGSFALVSKLTVDKSRWQQGNVFSCSVMHEALHNHYTQKSLSLSPG heavy 2: not shown light: GDIQMTQSPSSLSASVGDRVTITCSASQDIGNFLNWYQQKPGKTVKVLIYYTSSLYSGVPSRFSGSGSGTDYTLTISSLQPEDFATYYCQQYSKLPLTFGQGTKLELKRTVAAPSVFIFPPSDEQLKSGTASVVCLLNNFYPREAKVQWKVDNALQSGNSQESVTEQDSKDSTYSLSSTLTLSKADYEKHKVYACEVTHQGLSSPVTKSFNRGEC |  | > 200 nM

Reference: patent US20260232827A1 (Zymeworks, published 2026)
